{"source": "paper PMC6051998", "key": {"[1]": {"target": "Drp1 short GG (minimal GTPase-GED construct of Drp1, short splice variant) (human) (UniProt O00429)", "assay": "SEC-MALS; GG constructs after 30 min at room temperature with the transition-state analog GDP.AlFx (2 mM GDP, 4 mM MgCl2, 2 mM AlCl3, 20 mM NaF); Drp1 GG 25 μM, Dyn1 GG and GG-PRD 15 μM; Superdex 75 10/300 GL"}, "[2]": {"target": "MffΔTM (residues 1–217), dimeric variant", "assay": "SEC-MALS; MffΔTM (100 μM) and GST (100 μM) on Superose 6 10/300 GL"}, "[3]": {"target": "glutathione S-transferase (GST)", "assay": "SEC-MALS; MffΔTM (100 μM) and GST (100 μM) on Superose 6 10/300 GL"}}, "data": [{"substance": "Drp1 short GG (minimal GTPase-GED construct of Drp1, short splice variant) (from UniProt O00429-4 1-327; O00429-4 1-327) (domain or fragment)", "values": [{"measurement": "stoichiometry N", "setting": "[1]", "result": 2}]}, {"substance": "MffΔTM (residues 1–217), dimeric variant (domain or fragment)", "values": [{"measurement": "stoichiometry N", "setting": "[2]", "result": 2}]}, {"substance": "glutathione S-transferase (GST) (enzyme)", "values": [{"measurement": "stoichiometry N", "setting": "[3]", "result": 2}]}]}
